Columns and labels:
[1] = target: native PSG1 (human (endogenous in serum of pregnant …, UniProt P11464 35-419)); assay: SPR
[2] = target: recombinant PSG1 (pregnancy-specific glycoprotein 1) (human, UniProt P11464 35-419, complex N-linked glycans); assay: SPR
Sequence of recombinant PSG1 (pregnancy-specific glycoprotein 1) (P11464 35-419): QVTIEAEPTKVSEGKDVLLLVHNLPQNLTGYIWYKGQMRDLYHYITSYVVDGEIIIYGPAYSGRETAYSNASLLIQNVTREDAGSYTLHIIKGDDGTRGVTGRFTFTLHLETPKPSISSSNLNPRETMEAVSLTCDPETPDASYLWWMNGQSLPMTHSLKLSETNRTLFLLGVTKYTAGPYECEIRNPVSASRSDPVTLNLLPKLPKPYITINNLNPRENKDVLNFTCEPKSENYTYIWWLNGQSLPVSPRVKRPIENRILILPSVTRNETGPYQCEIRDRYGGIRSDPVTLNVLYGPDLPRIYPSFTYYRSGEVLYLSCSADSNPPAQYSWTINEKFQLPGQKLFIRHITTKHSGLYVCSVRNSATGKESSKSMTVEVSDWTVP

Sequence of native PSG1 (human (P11464 35-419): as above

B1: recombinant human galectin 9 (natural protein, UniProt O00182-2 1-323, looked up)
chain: MAFSGSQAPYLSPAVPFSGTIQGGLQDGLQITVNGTVLSSSGTRFAVNFQTGFSGNDIAFHFNPRFEDGGYVVCNTRQNGSWGPEERKTHMPFQKGMPFDLCFLVQSSDFKVMVNGILFVQYFHRVPFHRVDTISVNGSVQLSYISFQPPGVWPANPAPITQTVIHTVQSAPGQMFSTPAIPPMMYPHPAYPMPFITTILGGLYPSKSILLSGTVLPSAQRFHINLCSGNHIAFHLNPRFDENAVVRNTQIDNSWGSEERSLPRKMPFVRGQSFSVWILCEAHCLKVAVDGQHLFEYYHRLRNLPTINRLEVGGDIQLTHVQT
Kd [1]: 40.3 nM
koff [1]: 0.0016 s⁻¹
kon [1]: 39000 M⁻¹ s⁻¹
Kd [2]: 21.6 nM
koff [2]: 0.00156 s⁻¹
